The target of one experiment is T1, human integrin β8 (human, UniProt P26012 43-769).
T1 construct: whole, on cells; also called ITGB8; H ITGB8
Put plainly: antibody binding, cell surface staining, flow cytometry. An excerpt: (§1) Chimeric integrin β8 constructs, which swapped mouse sequences into human ITGB8 were used to localize the 37E1B5 binding epitope. The epitope was localized by antibody binding, cell surface staining, and detection by flow cytometry. The 37E1B5 epitope is encompassed within amino acids 74-180 of human integrin β8. 37E1B5 binds to human, but not to mouse β8. Therefore, at least one of the 9 non-conservative amino acid differences or 7 minor amino acid differences (indicated by + in the middle line of the sequence) are included in the binding epitope. These domains reflect portions of what are known in the field as the Psi, hybrid and the alpha1 helix of the Beta-I domain of the integrin β8 subunit, and are found on the surface of the molecule.

A further experiment addresses human integrin αvβ8 (human, UniProt P06756 31-1048; P26012 43-769). Put plainly: cell staining and flow cytometry on primary human articular chondrocytes. The protocol: Adult articular cartilage was harvested from the joint space of knee from a patient undergoing elective repair of a knee for chronic osteoarthritis. Primary chondrocytes were grown to 70% confluence and the integrin receptor expression determined by cell staining and flow cytometry. The antibodies used were anti-β8 (37E1B5), and anti-β6 (E7P6). […] Primary chondrocytes were co-cultured with TMLC TGF-β reporter cells (Annes et al. (2004) J. Cell Biol. 165:723) in a TGF-β bioassay in the presence or absence of anti-β8 (37E1B5) or neutralizing anti-β6. Anti-β8 produced a robust blockade of TGF-β activation while anti-β6 produced no such effect.
(Flow cytometry measures light scatter and fluorescence of single cells or particles in a stream.)

The next experiment concerns the target T2, mouse integrin β8 (mouse, UniProt Q0VBD0 22-767, limits assumed).
T2 construct: also called itgb8; M itgb8
T2 sequence (looked up): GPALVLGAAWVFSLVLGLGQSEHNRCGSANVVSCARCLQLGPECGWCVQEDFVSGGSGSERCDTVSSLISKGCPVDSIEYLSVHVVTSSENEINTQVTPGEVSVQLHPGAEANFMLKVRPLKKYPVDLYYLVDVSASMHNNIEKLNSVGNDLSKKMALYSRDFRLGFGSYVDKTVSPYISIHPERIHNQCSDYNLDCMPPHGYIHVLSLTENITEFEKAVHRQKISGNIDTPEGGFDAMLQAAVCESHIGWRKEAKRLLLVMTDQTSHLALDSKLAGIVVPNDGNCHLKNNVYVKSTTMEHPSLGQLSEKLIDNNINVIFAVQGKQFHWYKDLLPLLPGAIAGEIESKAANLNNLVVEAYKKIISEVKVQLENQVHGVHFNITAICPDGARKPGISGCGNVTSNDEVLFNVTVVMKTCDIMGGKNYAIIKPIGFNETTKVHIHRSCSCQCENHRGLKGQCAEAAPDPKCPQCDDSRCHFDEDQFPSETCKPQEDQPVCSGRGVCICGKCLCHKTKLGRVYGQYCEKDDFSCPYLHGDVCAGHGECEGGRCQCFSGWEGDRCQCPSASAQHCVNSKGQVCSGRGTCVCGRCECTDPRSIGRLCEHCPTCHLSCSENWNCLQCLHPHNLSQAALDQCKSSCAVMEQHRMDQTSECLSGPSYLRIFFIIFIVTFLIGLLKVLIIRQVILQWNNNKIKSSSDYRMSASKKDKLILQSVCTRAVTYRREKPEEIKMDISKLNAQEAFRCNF
Put plainly: antibody binding, cell surface staining, flow cytometry (mouse/human chimeric β8 constructs).
Excerpt: as §1

T1 sequence (P26012 43-769): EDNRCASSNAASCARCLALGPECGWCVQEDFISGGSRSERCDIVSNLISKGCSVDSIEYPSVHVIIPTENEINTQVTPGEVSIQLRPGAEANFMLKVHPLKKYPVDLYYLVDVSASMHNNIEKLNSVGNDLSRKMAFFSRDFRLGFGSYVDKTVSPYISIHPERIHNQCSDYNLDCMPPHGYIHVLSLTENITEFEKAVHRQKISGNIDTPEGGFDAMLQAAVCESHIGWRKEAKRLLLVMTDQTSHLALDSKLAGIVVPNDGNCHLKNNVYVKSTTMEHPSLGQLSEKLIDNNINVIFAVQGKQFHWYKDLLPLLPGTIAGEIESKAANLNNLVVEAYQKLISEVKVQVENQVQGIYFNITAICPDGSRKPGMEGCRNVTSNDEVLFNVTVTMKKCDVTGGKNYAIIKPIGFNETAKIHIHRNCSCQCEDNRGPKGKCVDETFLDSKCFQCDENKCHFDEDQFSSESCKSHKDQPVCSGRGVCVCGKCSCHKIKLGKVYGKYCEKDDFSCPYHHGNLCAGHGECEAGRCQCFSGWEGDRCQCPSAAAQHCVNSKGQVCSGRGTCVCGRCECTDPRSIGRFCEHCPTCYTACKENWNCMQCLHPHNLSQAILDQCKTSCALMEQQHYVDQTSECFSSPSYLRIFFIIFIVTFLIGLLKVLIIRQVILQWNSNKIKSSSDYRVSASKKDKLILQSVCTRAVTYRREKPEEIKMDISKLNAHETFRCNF
human integrin αvβ8, sequence (P06756 31-1048, chain 1 of 2): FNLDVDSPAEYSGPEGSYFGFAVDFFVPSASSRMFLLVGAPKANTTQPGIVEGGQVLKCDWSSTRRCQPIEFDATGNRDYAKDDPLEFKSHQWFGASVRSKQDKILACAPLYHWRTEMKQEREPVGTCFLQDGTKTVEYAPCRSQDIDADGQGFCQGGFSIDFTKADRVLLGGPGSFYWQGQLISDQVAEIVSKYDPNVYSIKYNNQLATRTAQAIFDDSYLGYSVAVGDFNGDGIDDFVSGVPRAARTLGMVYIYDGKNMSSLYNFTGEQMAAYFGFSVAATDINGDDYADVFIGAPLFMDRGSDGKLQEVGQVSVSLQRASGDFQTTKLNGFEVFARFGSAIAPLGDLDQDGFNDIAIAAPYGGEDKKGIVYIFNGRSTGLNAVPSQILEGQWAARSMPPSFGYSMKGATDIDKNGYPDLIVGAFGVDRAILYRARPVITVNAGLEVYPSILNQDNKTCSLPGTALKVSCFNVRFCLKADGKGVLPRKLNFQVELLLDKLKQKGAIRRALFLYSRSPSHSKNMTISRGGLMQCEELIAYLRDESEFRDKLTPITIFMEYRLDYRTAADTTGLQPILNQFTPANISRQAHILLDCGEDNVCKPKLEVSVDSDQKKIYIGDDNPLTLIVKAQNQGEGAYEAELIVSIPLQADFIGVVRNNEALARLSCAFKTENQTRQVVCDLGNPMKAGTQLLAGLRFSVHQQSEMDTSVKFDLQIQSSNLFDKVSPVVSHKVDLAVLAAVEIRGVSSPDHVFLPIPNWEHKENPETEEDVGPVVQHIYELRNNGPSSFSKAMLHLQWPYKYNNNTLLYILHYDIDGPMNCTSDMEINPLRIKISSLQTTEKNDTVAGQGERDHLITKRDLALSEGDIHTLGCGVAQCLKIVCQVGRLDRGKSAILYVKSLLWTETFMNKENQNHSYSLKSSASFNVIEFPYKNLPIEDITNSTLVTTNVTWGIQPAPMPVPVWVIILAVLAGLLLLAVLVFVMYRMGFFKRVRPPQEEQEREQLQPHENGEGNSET
human integrin αvβ8, sequence (P26012 43-769, chain 2 of 2): as the sequence (P26012 43-769) above

B1: 37E1B5 (antibody, V domains shown)
VH: EVQLVESGGGLVQPGGSLNLSCAVSGFVFSRYWMSWVRQAPGKGLEWIGEINPDSSTINYTSSLKDKFIISRDNAKNTLYLQMNKVRSEDTALYYCACLITTEDYWGQGTSVTVSS
VL: QIVLTQSPSSMYASLGERVTIPCKASQDINSYLSWFQQKPGKSPKTLIYYANRLVDGVPSRFSGSGSGQDYSLTISSLEYEDMGIYYCLQYDEFPYTFGGGTKLEIK
notes: Three versions were made in CHO cells: mouse IgG1, mouse IgG2a and partially humanized IgG1; also called 37E1B5 antibody; anti-β8 (37E1B5)
Turning to B1, the figures for the binding result with human integrin β8, with human integrin αvβ8 and with mouse integrin β8 were “binds”, “binds” and “no binding”, respectively.

For the origin of these results see patent US20130064837A1 (University of California, published 2013).
